Source: patent US20240400708A1
Substitutions are numbered along the chain they refer to. Numbers in names are those of the source. Each block holds one binder with its values, some of them ahead of it.

Legend:
[1] = biological target: Feline FcRn complex (FcRn-alpha subunit and beta-microglobulin) (feline); test: SPR (Biacore), feline FcRn captured on SA chip, IgG flowed over, pH 6
[2] = biological target: Feline FcRn complex (FcRn-alpha subunit and beta-microglobulin) (feline); test: SPR (Biacore), feline FcRn captured on SA chip, IgG flowed over, pH 7.4

B2: feline IgG1a Fc mutant S428Y, S252Y (antibody, part only; not given: Variable domains, not shown: another chain or arm of the molecule; small tags and cut ends)
constant: ASTTAPSVFPLAPSCGTTSGATVALACLVLGYFPEPVTVSWNSGALTSGVHTFPAVLQASGLYSLSSMVTVPSSRWLSDTFTCNVAHPPSNTKVDKTVRKTDHPPGPKPCDCPKCPPPEMLGGPSIFIFPPKPKDTLYISRTPEVTCLVVDLGPDDSDVQITWFVDNTQVYTAKTSPREEQFNSTYRVVSVLPILHQDWLKGKEFKCKVNSKSLPSPIERTISKAKGQPHEPQVYVLPPAQEELSRNKVSVTCLIKSFHPPDIAVEWEITGQPEPENNYRTTPPQLDSDGTYFVYSKLSVDRSHWQRGNTYTCSVYHEALHSHHTQKSLTQSPGK
Kd [1]: 8.58 nM

B3: feline IgG1a Fc mutant S428L, S434F (antibody, part only; not given: Variable domains, not shown: another chain or arm of the molecule; small tags and cut ends)
constant: B2 constant with Y138S, Y316L, S322F
Kd [1]: 1.39 nM
Kd [2]: 46.4 nM

B8: feline IgG1a Fc mutant Q311L, S428M (antibody, part only; not given: Variable domains, not shown: another chain or arm of the molecule; small tags and cut ends)
constant: B2 constant with Y138S, Q197L, Y316M
Kd [1]: 5.7 nM

B9: feline IgG1a Fc mutant S428M, S252Y (antibody, part only; not given: Variable domains, not shown: another chain or arm of the molecule; small tags and cut ends)
constant: B2 constant with Y316M
Kd [1]: 5.12 nM
Kd [2]: 124 nM

B10: feline IgG1a Fc mutant S428L, S434W (antibody, part only; not given: Variable domains, not shown: another chain or arm of the molecule; small tags and cut ends)
constant: B2 constant with Y138S, Y316L, S322W
Kd [1]: 1.02 nM
Kd [2]: 41.8 nM

B13: feline IgG1a Fc mutant Q311K, S428M (antibody, part only; not given: Variable domains, not shown: another chain or arm of the molecule; small tags and cut ends)
constant: B2 constant with Y138S, Q197K, Y316M
Kd [1]: 6.16 nM

B14: feline IgG1a Fc mutant S428M, S434F (antibody, part only; not given: variable domains and light chain, not shown: another chain or arm of the molecule; small tags and cut ends)
constant: B2 constant with Y138S, Y316M, S322F
Kd [1]: 1.21 nM
Kd [2]: 38.2 nM

B15: feline IgG1a Fc mutant Q311Y, S428Y (antibody, part only; not given: Variable domains, not shown: another chain or arm of the molecule)
constant: B2 constant with Y138S, Q197Y
Kd [1]: 5.57 nM

B17: feline IgG1a Fc mutant S428Y, S252F (antibody, part only; not given: Variable domains, not shown: another chain or arm of the molecule)
constant: B2 constant with Y138F
Kd [1]: 6.62 nM

B18: feline IgG1a Fc mutant Q311L, S428Y (antibody, part only; not given: Variable domains, not shown: another chain or arm of the molecule)
constant: B2 constant with Y138S, Q197L
Kd [1]: 4.74 nM

B25: feline IgG1a Fc mutant S428Y, S434W (antibody, part only; not given: variable domains and light chain, not shown: another chain or arm of the molecule; small tags and cut ends)
constant: B2 constant with Y138S, S322W
Kd [1]: 1.39 nM
Kd [2]: 24.1 nM

B28: feline IgG1a Fc mutant S428L, S434H (antibody, part only; not given: Variable domains, not shown: another chain or arm of the molecule; small tags and cut ends)
constant: B2 constant with Y138S, Y316L, S322H
Kd [1]: 2.58 nM
Kd [2]: 43.9 nM

B31: feline IgG1a Fc mutant S428Y, S252W (antibody, part only; not given: Variable domains, not shown: another chain or arm of the molecule)
constant: B2 constant with Y138W
Kd [1]: 2.95 nM

B32: feline IgG1a Fc mutant S428Y, S434F (antibody, part only; not given: Variable domains, not shown: another chain or arm of the molecule; small tags and cut ends)
constant: B2 constant with Y138S, S322F
Kd [1]: 1.57 nM
Kd [2]: 39.7 nM

Continued by falling Kd [1], values first:

Kd [1]: 6.92 nM
B23: feline IgG1a Fc mutant Q311H, S428Y (antibody, part only; not given: Variable domains, not shown: another chain or arm of the molecule)
constant: B2 constant with Y138S, Q197H

Kd [1]: 6.58 nM
B4: feline IgG1a Fc mutant Q311H, S428M (antibody, part only; not given: Variable domains, not shown: another chain or arm of the molecule; small tags and cut ends)
constant: B2 constant with Y138S, Q197H, Y316M

Kd [1]: 6.51 nM
B24: feline IgG1a Fc mutant Q311W, S428M (antibody, part only; not given: Variable domains, not shown: another chain or arm of the molecule; small tags and cut ends)
constant: B2 constant with Y138S, Q197W, Y316M

Kd [1]: 6.41 nM
B5: feline IgG1a Fc mutant S428Y, S252H (antibody, part only; not given: Variable domains, not shown: another chain or arm of the molecule; small tags and cut ends)
constant: B2 constant with Y138H

Kd [1]: 6.35 nM
B27: feline IgG1a Fc mutant Q311W, S428Y (antibody, part only; not given: Variable domains, not shown: another chain or arm of the molecule)
constant: B2 constant with Y138S, Q197W

Kd [1]: 5.72 nM
B7: feline IgG1a Fc mutant Q311M, S428Y (antibody, part only; not given: variable domains, not shown: another chain or arm of the molecule; small tags and cut ends)
constant: B2 constant with Y138S, Q197M

Kd [1]: 5.66 nM
B6: feline IgG1a Fc mutant Q311M, S428M (antibody, part only; not given: Variable domains, not shown: another chain or arm of the molecule; small tags and cut ends)
constant: B2 constant with Y138S, Q197M, Y316M

Kd [1]: 5.46 nM
B12: feline IgG1a Fc mutant S428M, S434R (antibody, part only; not given: variable domains, not shown: another chain or arm of the molecule; small tags and cut ends)
constant: B2 constant with Y138S, Y316M, S322R

Kd [1]: 5.28 nM
B16: feline IgG1a Fc mutant Q311R, S428M (antibody, part only; not given: variable domains and light chain, not shown: another chain or arm of the molecule; small tags and cut ends)
constant: B2 constant with Y138S, Q197R, Y316M

Kd [1]: 4.81 nM
B20: feline IgG1a Fc mutant Q311R, S428Y (antibody, part only; not given: Variable domains, not shown: another chain or arm of the molecule; small tags and cut ends)
constant: B2 constant with Y138S, Q197R

Kd [1]: 3.85 nM
B30: feline IgG1a Fc mutant S428Y, S434R (antibody, part only; not given: Variable domains, not shown: another chain or arm of the molecule; small tags and cut ends)
constant: B2 constant with Y138S, S322R

Kd [1]: 3.31 nM
Kd [2]: 35.9 nM
B21: feline IgG1a Fc mutant Q311K, S428Y (antibody, part only; not given: Variable domains, not shown: another chain or arm of the molecule)
constant: B2 constant with Y138S, Q197K

Kd [1]: 3.09 nM
B19: feline IgG1a Fc mutant S428M, S434H (antibody, part only; not given: Variable domains, not shown: another chain or arm of the molecule; small tags and cut ends)
constant: B2 constant with Y138S, Y316M, S322H

Kd [1]: 2.27 nM
B26: feline IgG1a Fc mutant S428Y, S434H (antibody, part only; not given: Variable domains, not shown: another chain or arm of the molecule; small tags and cut ends)
constant: B2 constant with Y138S, S322H

Kd [1]: 1.12 nM
Kd [2]: 24.1 nM
B22: feline IgG1a Fc mutant S428Y, S434Y (antibody, part only; not given: variable domains and light chain, not shown: another chain or arm of the molecule; small tags and cut ends)
constant: B2 constant with Y138S, S322Y

Kd [1]: 0.937 nM
Kd [2]: 25.3 nM
B11: feline IgG1a Fc mutant S428M, S434W (antibody, part only; not given: Variable domains, not shown: another chain or arm of the molecule; small tags and cut ends)
constant: B2 constant with Y138S, Y316M, S322W

Kd [1]: 0.933 nM
Kd [2]: 22.2 nM
B1: feline IgG1a Fc mutant S428L, S434Y (antibody, part only; not given: Variable domains, not shown: another chain or arm of the molecule; small tags and cut ends)
constant: B2 constant with Y138S, Y316L, S322Y

Kd [1]: 0.888 nM
Kd [2]: 25.2 nM
B29: feline IgG1a Fc mutant S428M, S434Y (antibody, part only; not given: Variable domains, not shown: another chain or arm of the molecule; small tags and cut ends)
constant: B2 constant with Y138S, Y316M, S322Y
